In patent US20230255948:

Molecular target: GST-OPNR153A (E. coli produced mutant OPN with the arginine in the thrombin cleavage site mutated to alanine) (UniProt P10923)

Thrombin
thrombin cleavage (time course, 10 nM thrombin, SDS-PAGE): resistant to thrombin cleavage
